# Measured values: paper PMC4784909, “The Structural Basis of Coenzyme A Recycling in a Bacterial Organelle” (PLoS Biology, 2016)
# Read-outs that look alike come from different tables or passages of the source.
# B1: rPduL, full length (PduL from the grm3 locus of Rhodopseudomonas palustris BisB18) (enzyme, UniProt Q21A54 1-226, looked up)
# chain: MDMQQETIERIIRQVLGQVGPAGGSIATLSGDAGVDPFQVAVGVSNRHIHLSRTDMDTLFGPGAELQRKKAMKQPGQFAAEETVTLKGPKGSLSKVRVLGPLRRETQVEVSVADGFALGITPPLRQSGQLDDTPGLTIIGPQGSVTKDHGVIVAQRHIHMHPSTAAKLGLRNGDEVDVEAGGERGGVMHRVLIRVAEASADEMHIDVEEANALCLKNDDVVRICKK
# notes: PduL phosphotransacylase, grm3 locus, Rhodopseudomonas palustris BisB18, with its N-terminal encapsulation peptide; Two oligomeric states by SEC (about a dimer and a higher oligomer); six subunits by SEC-MALS; also called rPduL hexamer; wildtype construct; source: E. coli BL21(DE3), purified (HisTrap, Superdex 200)
# B2: rPduLΔEP (PduL from the grm3 locus of Rhodopseudomonas palustris BisB18, N-terminal putative encapsulation peptide removed) (enzyme, UniProt Q21A54 34-226, looked up)
# chain: GVDPFQVAVGVSNRHIHLSRTDMDTLFGPGAELQRKKAMKQPGQFAAEETVTLKGPKGSLSKVRVLGPLRRETQVEVSVADGFALGITPPLRQSGQLDDTPGLTIIGPQGSVTKDHGVIVAQRHIHMHPSTAAKLGLRNGDEVDVEAGGERGGVMHRVLIRVAEASADEMHIDVEEANALCLKNDDVVRICKK
# notes: PduL phosphotransacylase, grm3 locus, Rhodopseudomonas palustris BisB18; N-terminal putative EP (33 amino acids) removed; the crystallized construct begins with M-G-V; The construct begins with M-G-V; Gene codon optimized and synthesized with the 6xHis tag; no tag cleavage step is described; Crystals hold CoA (or phosphate) and two zinc ions per chain; also called truncated rPduL; Pdul-His; …
# Assays:
# rPduLΔEP [1] = molecular target: T1, rPduLΔEP (Rhodopseudomonas palustris, UniProt Q21A54); assay: X-ray crystal structure, […] Å; type: binding; set-up: gene pduL; C-terminal 6xHis, codon optimized, E. coli BL21(DE3); dimer; contains 2 Zn; settings: CoA co-purified from E. coli; sulfur coordinates Zn1 of di-zinc active site
# rPduLΔEP [2] = molecular target: T1, rPduLΔEP; set-up: gene pduL; settings: crystals soaked 2 d in sodium phosphate pH 7.0; bridges both Zn in active site, CoA dissociated
# [3] = molecular target: pPduL, full length (PduL from the pvm locus of Planctomyces limnophilus) (Planctomyces limnophilus); assay: SEC; post-nickel affinity protein on HiLoad 26/60 Superdex 200 preparative column, pooled fractions (1-20 mg/mL) on Superdex 200 10/300 GL analytical column; 20 mM Tris pH 7.4, 50 mM NaCl
# [4] = molecular target: pPduL, full length (PduL from the pvm locus of Planctomyces limnophilus) (Planctomyces limnophilus); assay: as above; remark: listed apart in the source
# [5] = molecular target: the molecule itself; assay: SEC-MALS; Superdex S200 10/300 GL, 1 mg/ml protein injected, 0.5 ml/min, 20 mM Tris, 50 mM NaCl, pH 7.4
# [6] = molecular target: the molecule itself; assay: SEC; post-nickel affinity protein on HiLoad 26/60 Superdex 200 preparative column, pooled fractions (1-20 mg/mL) on Superdex 200 10/300 GL analytical column; 20 mM Tris pH 7.4, 50 mM NaCl
molecule,measurement,setting,value
CC(C)(COP(=O)(O)OP(=O)(O)OC[C@H]1O[C@@H](n2cnc3c(N)ncnc32)[C@H](O)[C@@H]1OP(=O)(O)O)[C@@H](O)C(=O)NCCC(=O)NCCS [Coenzyme A],"X-ray crystal structure, 1.54 Å",rPduLΔEP [1],"tetrahedral coordination state with His48, His50, Glu109, and the CoA sulfur"
O=P(O)(O)O [phosphate],"X-ray crystal structure, phosphate soak, 2.10 Å",rPduLΔEP [2],"the CoA dissociates, and density for a phosphate molecule is visible at the active site"
"pPduL, full length (PduL from the pvm locus of Planctomyces limnophilus) (enzyme)",stoichiometry N,[3],2
same,stoichiometry N,[4],6
B1,stoichiometry N,[5],6
same,stoichiometry N,[6],~2
B2,stoichiometry N,[6],2
